Experimental findings from article PMC4499158, “Outwitting EF-Tu and the ribosome: translation with d-amino acids” are described below.

The target in this data set is EF-Tu (GTP form) (Escherichia coli K12 MG1655, UniProt P0CE47 1-394). Description: EMSA; GTP; L-Gln-tRNA; Native PAGE EMSA; EF-Tu preincubated with GTP, phosphoenol pyruvate and pyruvate kinase, 20 µl reactions, 3'-32P aminoacyl-tRNA; buffer, salt, pH and temperature not in the material. The note with it: protein: recombinant; tags: StrepTag or TwinStrep-Tag; label: 3' 32P; tRNA cloverleaf.
Chain of EF-Tu (GTP form) (P0CE47 whole entry): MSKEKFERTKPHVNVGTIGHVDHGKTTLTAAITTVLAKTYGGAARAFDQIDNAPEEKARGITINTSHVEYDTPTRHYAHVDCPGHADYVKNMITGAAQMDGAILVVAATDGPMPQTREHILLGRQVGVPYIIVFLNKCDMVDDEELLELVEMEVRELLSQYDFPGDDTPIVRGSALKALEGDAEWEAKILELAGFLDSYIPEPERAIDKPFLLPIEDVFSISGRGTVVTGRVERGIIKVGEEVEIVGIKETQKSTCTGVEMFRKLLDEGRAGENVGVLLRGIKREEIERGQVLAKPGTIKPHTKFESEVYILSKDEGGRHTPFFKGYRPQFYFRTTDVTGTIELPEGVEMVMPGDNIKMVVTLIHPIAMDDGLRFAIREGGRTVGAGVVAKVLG

B1: tRNAGly tp (structured_RNA)
RNA: GCGGGCGUAGUUCAAUGGUAGAACGAGAGCUUCCCAAGCUCUAUACGAAGGUUCGAUUCCUUCCGCCCGCUCCA
modifications: 3'-aminoacyl as per row
Take B1: the binding result is listed as “binds”.
